Results as given in the supplement of paper PMC9170038.

System: MS2 coat protein
Experiment: apparent KD of MS2 coat protein; designed switch direction (-1 OFF switch, 1 ON switch): -1; higher = weaker reporter binding
Procedure, shortened: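 An oligonucleotide input, 200 uM small-molecule ligand, or no input was present during titration of SNAP-549-labelled MS2 coat protein, which was doubled from 0.7 or 1.5 nM to 3 µM. Designed RNA switches had been transcribed on Illumina chips by stalled E. coli RNA polymerase. Apparent KD per design is the median over clusters of curves fitted to normalised cluster fluorescence.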

[1] = input ligand: microRNA oligo, concentration not stated
[2] = Eterna round: R95, input ligand: FMN 200 uM
[3] = Eterna round: R95, input ligand: microRNA oligo, concentration not stated
[4] = Eterna round: R95, input ligand: none

Sequence | apparent KD of MS2 coat protein (input ligand: FMN 200 uM) | apparent KD of MS2 coat protein [1] | apparent KD of MS2 coat protein (input ligand: none) | apparent KD of MS2 coat protein [2] | apparent KD of MS2 coat protein [3] | apparent KD of MS2 coat protein [4]
ACAUGAGGAUCACCCAUGUCUGGCUGGUCCGUCUCGGCUGUCGAGGAUAUAGCUCGGUGUCCGCGCUAGAAGGCGGGAGCUGGU [Aenatbe mod 82] (Eterna round: R96, puzzle: Exclusion NG 3) | 631 nM | 78 nM | 143 nM |  |  | 
CCGGCUUAGCAGGAUAUAGGAGUCGAUAGACACCUAGAAGGGCUAACAUGAGGAUCACCCAUGUGUCCUACCGG [Fiskers Ex 6 - 100] (puzzle: Exclusion 6) |  |  |  | 65 nM | 25.9 nM | 30.7 nM
GUUAGCGUAGGAUAUUAGUACAUGAACAUGAGGAUCACCCAUGUGAGGUGGGUCUUAGAUUAAGAAGGGCGAAGAA [EX5 #31] (Eterna round: R97, puzzle: Exclusion 5) | 387 nM |  | 447 nM |  |  | 
GUCACAUGGAUGUAGGAUCACAUGAGGAUCACCCAUGUGACUAACAAGGUUUUUGCUCAUCUUAUGACUAUGUGAAU [A Brourd mod] (Eterna round: R97, puzzle: Sensor, turn-off variant 1) | 91.7 nM |  | 103 nM |  |  | 
CUAUCUUGCAAGGAUAUGCAAUUUAUUAUUUAUGCAGAAGGUGCUACAUGAGGAUCACCCAUGUUUCUGGGUUU [JR_E6_Sub046] (Eterna round: R96, puzzle: Exclusion 6) | 314 nM | 116 nM | 120 nM |  |  | 
ACAUGAGGAUCACCCAUGUGAAAAGAAUGGCUGACACAGAGAUAGGAUAUAGGUGCAUAUCUAACCUAGAAGGGUCAUGACUGG [Deportation 77 - Jieux - Exclusion NG 3] (Eterna round: R96, puzzle: Exclusion NG 3) | 23.5 nM | 22.3 nM | 33 nM |  |  | 
GGAGUGUAAGGAUAUAAGACAAGGGCUAUCGGAGCCCAAAUUUAGAAGGUACAUGAGGAUCACCCAUGUGAUGA [Eternabot (L1) Solution 5] (Eterna round: R97, puzzle: Exclusion 4) | 124 nM |  | 27.2 nM |  |  | 
AAAUGAUGUCAGGAUAUUGACGUUAAAAGAACGCAAGAAGGGACAACAUGAGGAUCACCCAUGUGGUCCUAUAA [Bira] (puzzle: Exclusion 6) |  |  |  |  | 13 nM | 
ACAUGAGGAUCACCCAUGUGACAAUAAUGGCUGAUACAGAGACAGGAUAUUCGUGAAUAUCUAACGAAGAAGGGUCAUGACUGG [Deportation 69 - Jieux - Exclusion NG 3] (Eterna round: R96, puzzle: Exclusion NG 3) | 37.9 nM | 45.7 nM | 51.8 nM |  |  | 
ACUGGAGCAGGAUAUAUAUGACGUGCUUCGGCACGGUGAGUACAUGAGGAUCACCCAUGUAGAAGGGCUCCAGU [Exclusion 2 (Mod2 of Brourd's E2/9-D2)] (Eterna round: R97, puzzle: Exclusion 2) | 88.4 nM |  | 23.4 nM |  |  | 
CUGCUGGAGCGGCGCUUUGGUCGUACAUGAGGAUCACCCAUGUAGGAUAUGGUAAAAUUUGCCUGCUAGAAGGAUAGAGUGGUC [salish99_ExNG3_r04_616] (Eterna round: R96, puzzle: Exclusion NG 3) | 124 nM | 70 nM | 91.6 nM |  |  | 
GCUGGUCGAGGAUAUGCAUAUACUGGAUACAGUGGAAGGUCACAUGAGGAUCACCCAUGUAGAAGGCGACUAGC [EX2 #37] (Eterna round: R97, puzzle: Exclusion 2) | 558 nM |  | 463 nM |  |  | 
UAUUGAGAGCAGGAUAUAUUCCUGAUGUAUGAAGUAGAAGGGCUCACAUGAGGAUCACCCAUGUGAUCCUGAAU [Mat - Exclusion 6 - Eli Mod - D5] (Eterna round: R97, puzzle: Exclusion 6) | 15.5 nM |  | 14 nM |  |  | 
GCCCGGCGUGUAGGAUAUGGUUCCGUUUCGGUUCCAGAAGGACAUGAGGAUACAUGAGGAUCACCCAUGUGGUCGUCACCGGGC [salish99_ExNG1_r04_402] (Eterna round: R96, puzzle: Exclusion NG 1) | 37.4 nM | 26 nM | 38.7 nM |  |  | 
AAUACAAGCUAUUGAUCCCACAUGAGGAUCACCCAUGUGCCUGGCCGUGAGACCAGGUUUACAAUAGCUCGUCUUAU [Sensor-V1 #47] (Eterna round: R97, puzzle: Sensor, turn-off variant 1) | 23.5 nM |  | 23.5 nM |  |  | 
AAGUAGCAUGCAGGAUAUGGUAAUCGAACGUUACCAGAAGGGCAUGAGGAUCACCCAUGUUCUCAUUUGUAAGAACAGAUGUCU [Ex NG1 #7] (Eterna round: R96, puzzle: Exclusion NG 1) | 251 nM | 110 nM | 94.4 nM |  |  | 
GUCGCAAUGCAGGAUAUCCUGCUAUUCAAGGGAGGAGAAGGGCAGACAUGAGGAUCACCCAUGUGGUCCGUGCC [Eternabot (L1) Solution 3] (Eterna round: R97, puzzle: Exclusion 6) | 160 nM |  | 170 nM |  |  | 
CCGGAAGUACAGGAUAUCGUAUCGGAAACGAUACGAGAAGGGUAUACAUGAGGAUCACCCAUGUGUCCUACCGG [Fiskers Ex 6 - 27] (puzzle: Exclusion 6) |  |  |  |  | 23.3 nM | 
UUUUAGGGAGGAUAUACAUUUUUUUUAUUAUCCUCAUUAAUACAUGAGGAUCACCCAUGUAGAAGGCCCAUUUU [Mat - Exclusion 2 - Mod of Hog - D84] (puzzle: Exclusion 2) |  |  |  |  | 47.9 nM | 
GGGCCUCAUGUGAGGAUAUUGGAUGAGGUGCGAGACGAGAAGGCACAUGAGGAUCACCCAUGUAACUAACCAAA [Bimaen] (Eterna round: R97, puzzle: Brourd's mod of Exclusion 4) | 34.8 nM |  | 85 nM |  |  | 
UACAUGAGGAUCACCCAUGUUUUGUCGUGUAUGGUACCCGUCUAGGAUAUCGUGUUAUUGGACCGCGAGAAGGAGAGUAUCAAU [Excl-NG3-LRO03] (Eterna round: R96, puzzle: Exclusion NG 3) | 26.4 nM | 20.2 nM | 33.5 nM |  |  | 
CAGGAAGCGGAGGAUAUGAUGAAAACUCGGCAAUCAGAAGGCCGCACAUGAGGAUCACCCAUGUCGCAAAUACC [Eternabot (Original) Solution 36] (Eterna round: R97, puzzle: Exclusion 6) | 16.6 nM |  | 15.3 nM |  |  | 
ACAAAGCUUUUUGCUCGUCACAUGAGGAUCACCCAUGUGAUAUAAUGAAAAUUAUAUGACAUCCCACUAGGACAUGU [I did it?] (Eterna round: R97, puzzle: Sensor, turn-off variant 1) | 18.5 nM |  | 20.9 nM |  |  | 
AAAAGGUCAGGAUAUACAAGAAAAGAAAAGAAAAGAAAAGAGUAGAAGGGACAUGAGGAUCACCCAUGUAAAAG [Default title] (puzzle: Exclusion 4) |  |  |  | 30.6 nM | 45.8 nM | 35.1 nM
UGGUGUUACGUAGGAUAUUGUCAACAGGCAGUAGGAUAUGCGAAAGCAGAAGGACCGCCAACAGGCGAGAAGGACGGGUUACCU [pwkr exNG2 2xF7 2xFMN.8] (Eterna round: R96, puzzle: Exclusion NG 2) | 136 nM | 145 nM | 211 nM |  |  | 
UCACGGGACUAAGGAUAUACAUGAACUAUUAUUGUAGAAGGUAGAAUGUUAGAUUAUACACUAAACAUGAGGAUCACCCAUGUU [JR_ExcNG1_Sub094] (Eterna round: R96, puzzle: Exclusion NG 1) |  | 15.9 nM |  |  |  | 
UGAAAGGUAGGAUAUACGAAGAAAAAGGGUAGAAUAAUAACACAUGAGGAUCACCCAUGUAGAAGGACCAAAGG [Mat - Exclusion 2 - Mod of my Tesla design - D9] (puzzle: Exclusion 2) |  |  |  | 70.1 nM | 23.2 nM | 25.2 nM
UGCAAGCUUUUAAGAUCCUACAUGAGGAUCACCCAUGUGGCUCGUCUUAUACGUACUGUGACGAAAGUCACGGUACG [JL TOV1 3.98] (Eterna round: R97, puzzle: Sensor, turn-off variant 1) | 25.4 nM |  | 22.8 nM |  |  | 
AAUACACAUGAGGAUCACCCAUGUUAGGAUAUUCGCGGGAAAGCUGUCAAAACGCCGAGGAGAAGGAACAGGAA [Excls1-X] (puzzle: Exclusion 1) |  |  |  | 40 nM | 33.7 nM | 45.7 nM
ACAUGAGGAUCACCCAUGUAAUGAAGGGUACUAUAUUAAACGUAGGAUAUCGAUGUAAGUUUGUUCGAGAAGGACGAUUGCCUU [JR_ExcNG3_Sub053] (Eterna round: R96, puzzle: Exclusion NG 3) | 28.1 nM | 38.6 nM | 75.8 nM |  |  | 
